Assays:
[1] = molecular target: recombinant human FcRn/FCGRT-B2M heterodimer protein (human) (UniProt P55899); assay: SPR, steady state affinity, pH 6.0
[2] = molecular target: recombinant human FcRn/FCGRT-B2M heterodimer protein (human) (UniProt P55899); assay: SPR Biacore 8K+, antibody on CM5 chip, FcRn in solution, pH 6.0
[3] = molecular target: SARS-COV-2 RBD (His-tagged, Sinobiologicals) (SARS-CoV-2 (Wuhan)) (UniProt P0DTC2); assay: ELISA, coated antigen, dilution series, OD450 [3/3]
[4] = molecular target: recombinant stabilized SARS-COV-1 Spike protein ([change], with foldon) (SARS-CoV-1) (UniProt P59594); assay: as above
[5] = molecular target: recombinant prefusion-stabilized SARS-COV-2 spike protein S-6P (SARS-CoV-2 (Wuhan)) (UniProt P0DTC2); assay: as above

Sequence of recombinant human FcRn/FCGRT-B2M heterodimer protein (human) (P55899 24-297 limits assumed, chain 1 of 2): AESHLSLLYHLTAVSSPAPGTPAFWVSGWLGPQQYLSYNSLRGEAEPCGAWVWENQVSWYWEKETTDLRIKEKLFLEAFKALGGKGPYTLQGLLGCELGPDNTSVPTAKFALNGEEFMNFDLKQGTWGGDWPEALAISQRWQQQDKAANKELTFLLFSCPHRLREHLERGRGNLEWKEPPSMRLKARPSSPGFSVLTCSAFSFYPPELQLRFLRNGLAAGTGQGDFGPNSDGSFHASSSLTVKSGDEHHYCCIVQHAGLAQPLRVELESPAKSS
Sequence of recombinant human FcRn/FCGRT-B2M heterodimer protein (human) (P61769 21-119 limits assumed, chain 2 of 2, further chain): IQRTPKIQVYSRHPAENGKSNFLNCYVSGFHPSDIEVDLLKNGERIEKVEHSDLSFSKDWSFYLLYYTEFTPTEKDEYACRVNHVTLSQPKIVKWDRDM

| Substance | Kd [1] | RUmax (steady state affinity, pH 6.0) [2] | EC50 (read off the curve) [3] | EC50 (read off the curve) [4] | EC50 (read off the curve) [5] |
| --- | --- | --- | --- | --- | --- |
| Bebtelovimab Biosimilar (PX-TA1750) (antibody) | 19.4 nM | 57.1 RU |  |  |  |
| S309 monoclonal antibody |  |  | 0.1 µg/mL | 0.04 µg/mL | 0.09 µg/mL |
| human IgG1 isotype control antibody | 15 nM | 37.5 RU |  |  |  |
